{"source": "patent US20150056210A1", "about": "(ROTTAPHARM BIOTECH S R L, published 2015)"}
{"target": "T1, Spacer-GST (human)", "T1 construct": "also called recombinant Spacer-ADAMTS-5-GST protein", "T1 sequence (chain, as listed by the source limits assumed)": "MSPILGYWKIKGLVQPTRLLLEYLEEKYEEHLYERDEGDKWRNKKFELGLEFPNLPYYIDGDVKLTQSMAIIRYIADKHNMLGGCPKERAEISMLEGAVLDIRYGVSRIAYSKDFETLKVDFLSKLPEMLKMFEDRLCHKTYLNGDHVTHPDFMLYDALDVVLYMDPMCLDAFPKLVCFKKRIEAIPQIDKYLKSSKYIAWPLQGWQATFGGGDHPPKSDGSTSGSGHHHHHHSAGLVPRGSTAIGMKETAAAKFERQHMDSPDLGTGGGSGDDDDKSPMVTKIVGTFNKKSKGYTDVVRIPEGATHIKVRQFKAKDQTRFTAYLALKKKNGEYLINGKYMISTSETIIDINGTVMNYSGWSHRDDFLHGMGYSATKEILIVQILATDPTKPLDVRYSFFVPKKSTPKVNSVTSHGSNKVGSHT", "assay": "SPR (Biacore X-100), CRB0017_IgG4 immobilised on CM5 chip, Spacer-GST in solution, KD1", "units": {"Kd": "nM"}}
{"binder": "CRB0017_IgG4 (antibody, V domains shown, Chimeric IgG: murine variable domains on human constant domains (Fc from human IgG4, kappa light chain), made in CHO-S cells; also called mAb CRB0017; CRB017 IgG4) VH: QVQLQQSGAELAKPGASVKMSCKASGYTFTSYWMHWVKQRPGQGLEWIGYINPSTGYTEYNQKFKDKATLTADKSSSTAYMQLGSLTSEDSAVYYCARGGYDDLGYWGQGTTLTVSS VL: DIVITQDELSNPVTSGESVSISCRSSKSLLYKDGKTYLYWFLQRPGQSPQLPIYLMSTRASGVSDRFSGSGSGTDFTLEISRVKAEDVGVYYCQQLVEYPYTFGGGTKLEIK", "Kd": "~2"}
{"target": "T1, Spacer-GST", "assay": "sandwich ELISA with Spacer-GST, data not shown"}
{"binder": "monoclonal antibody CRB0102 (antibody, V domains shown, also called CRB0102 IgG4) VH: EVQLVESGSDVKKPGASVRVSCKVSGYRLTEYPIHWVRQAPGKGLEYMGGFDLENGVTKAAPRFRGRFTMTEDTSTDSVYMELKSLTSEDTAVYYCVKGPGYGALVTSFTSWGLGTLVTVSS VL: ETTLTQSPAFMSATPGDKIYISCKASQDIDDDMNWYQQKPGEAAIFIIQEATTLVPGIPPRFSGSGYGTDFTLTINNMESEDAAYYFCPQQDNVPLTFGGGTKVDIK", "binding result": "binds"}
{"binder": "CRB0123_IgG4 (antibody, V domains shown, also called mAb CRB0123; monoclonal antibody CRB0123) VH: QVQLQESGGGVVQPGRSLRLSCAASGFTFSGYGMNWVRQAPGTGLEWVATISFDGTDKYYADSVKGRFTISRDNAENTLYLQMNSLRAEDMAVYYCARDWSYAMDVWGQGTMVTVSS VL: DIQMTQSPSSVSASVGDRVTITCRPSQGIGKYSAWYQQKPGKAPELPIYLASTLQSGVPSRFSDSGSGTEFTLTISSLQPEDFATYYCLQRNTYPWTFGQGTKVEIK", "binding result": "binds"}
{"target": "T1, Spacer-GST", "assay": "SPR (Biacore), Spacer-GST immobilised, CRB0017_IgG4 in solution, bivalent binding model, KD2, data not shown", "units": {"Kd": "nM"}}
{"binder": "CRB0017_IgG4 (antibody, V domains shown, Chimeric IgG: murine variable domains on human constant domains (Fc from human IgG4, kappa light chain), made in CHO-S cells; also called mAb CRB0017; CRB017 IgG4) VH: QVQLQQSGAELAKPGASVKMSCKASGYTFTSYWMHWVKQRPGQGLEWIGYINPSTGYTEYNQKFKDKATLTADKSSSTAYMQLGSLTSEDSAVYYCARGGYDDLGYWGQGTTLTVSS VL: DIVITQDELSNPVTSGESVSISCRSSKSLLYKDGKTYLYWFLQRPGQSPQLPIYLMSTRASGVSDRFSGSGSGTDFTLEISRVKAEDVGVYYCQQLVEYPYTFGGGTKLEIK", "Kd": 7}
{"target": "T1, Spacer-GST", "assay": "ELISA, Spacer-GST coated at 10 µg/mL, scFv in solution, anti-V5 detection", "experimental": "FIG. 3. ELISA reactivity of isolated anti-Sp_ADAMTS-5 scFvs with Spacer-GST and GST negative control. Spacer-GST and GST antigens were coated at 10 μg/mL. […] The mean absorbance at 450 nm of the experiments performed in duplicate wells is shown with SD indicated by the bars.\nNunc Maxi-Sorp Immunoplate was coated with […] Sp_ADAMTS-5-GST and GST at 10 μg/mL in coating buffer (100 mM Na₂CO₃ pH 9.6). Plate was incubated overnight at 4° C. next day, the unbound antigens were discarded and plate was washed 3× with PBS. Non-specific binding was blocked by adding […] of 3% MPBS (3% fat free milk in PBS). Plate was incubated for 1 h at RT. Plate was washed 3×TPBS (0.1% Tween20 in PBS) and 3×PBS. 100 μL of serial dilution of anti-Sp_ADAMTS-5scFv (0.5-50 μg/mL) in 3% MPBS was added to appropriate wells. Then plate was incubated for 2 h at RT. After washing with 3×TPBS and 3×PBS, 100 μL of anti-V5 antibody (Invitrogen) diluted 1:5000 in 3% MPBS was added to each well. Plate was incubated for 1 h and 30 min at RT. After washing with 3×TPBS and 3×PBS 100 μL of anti-mouse HRP (DAKO) diluted 1:2000 in 3% MPBS was added to each well. Plate was incubated for 1 h at RT. After washing with 3×TPBS and 3×PBS 80 μL of TMB (Sigma) was added. Plate was incubated in dark chamber until samples reach the desired signal. 80 μL of stopping solution (500 mM H₂SO₄) was added to each well before reading. Data were collected measuring OD(450 nm) by LD 400 Luminescence Detector (Beckman Coulter)."}
{"binder": "CRB0124 scFv (scFv, VP16 fusion in the yeast selection; also called clone S53a) scFv: QVQLVQSGSDVKKPGASVRVSCKVSGYRLTEYPIHWVRQAPGKGLEYMGGFDLENGVTKAAPRFRGRFTMTEDTSTDSVYMELKSLTSEDTAVYYCVKGPGYGALVTSFTSWGLGTTVTVSSSGGSTSGSGKPGSGEGSSGTSYVLTQPPSVSVSPGQTASITCSGDKLEDKYACWYQQKPGQSPVLVIYHDYKRPSGIPERFSGSNSGNTATLTISRVEGGDEADYYCQVWDSGSDDQVFGGGTKLTVL", "binding result": "binds"}
{"binder": "CRB0122 scFv (scFv, VP16 fusion in the yeast selection; also called clone S39) scFv: QVQLQESGGGLVRPGGSLRLSCAASGFTFSSYAMTWVRQAPGKGLEWVSAISGSGDSTYYADSVKGRFTISRDNSKNTLYLQMDSLRVEDTAVYYCARDRDLLHKDGFDIWGQGTMVTVSSSGGSTSGSGKPGSGEGSSGTQSVLTQPPSASASLGASVTLTCTLSSGYSNYKVDWYQQTPGKGPRFVMRVGTGGTVGSKGDGIPDRFSVLGSGLNRYLIIKNIQEEDETDYHCGADHGSGSNFVYVFGSGTKVTVL", "binding result": "binds"}
{"binder": "CRB0018 scFv (scFv, VP16 fusion in the yeast selection; also called clone 7A (mSPLINT)) scFv: DIVMTQSPASLAVSQGQRATISCRASESVDSYGNSFMHWYQQKPGQPPKLPIYLASNLESGVPARFSGSGSRTDFTLTIDPVEADDAATYYCQQNNEELTFGAGTKLELKRSGGSTSGSGKPGSSEGSSGTEVKLLESGGGLVQPGGSLKLSCTTSGFDFSRYWMSWVRQAPGKGLEWIGEINPDSSTINYTPSLKDKFIISRDNAKNTLYLQMSKVRSEDTALYYCARRSYWYFDVWGAGTSVTVSS", "binding result": "binds"}
{"binder": "CRB0091 scFv (scFv, VP16 fusion in the yeast selection; also called clone 7A (huSPLINT_09)) scFv: DIVMTQSPSSLSASVGDRVTITCRASQAIGNDLAWYQQRPGKAPKRLIYGASTLSSGVPSRFSGSGSGTEFTLTISSLQPDDFATYYCQQYNNFPYTFGLGTKVEIKSGGSTSGSGKPGSGEGSSGTQVQLQQWGAGLLKPSETLSLTCAVHGGSFSGNFWSWVRQHPGKGLEWIGEVNHRGSATYNPSLKSRVTMSVDTSKNQFSLQLSSVTAADTAVYYCARKLPRRRAEDRPSSLRPFDYWGQGTLVTVSS", "binding result": "binds"}
{"binder": "CRB0092 scFv (scFv, VP16 fusion in the yeast selection; also called clone C21) scFv: QSVVTQPPSVSGAPGQRVTISCTGSSSNIGAGYDVHWYQQLPGTAPKLLIYGNDNRPSGVPDRFSGSKSGTSASLAITGLQAEDEADYYCQSYDNSLSGYAVFGGGTQLTVLSGGSTSGSGKPGSGEGSSGTQVQLVESGGGLVQPGGSLRLSCAASGFRFSSHDMHWVRQVPGKGLEWVSRIGTVGDTYYADSVKGRFTISRDNSKNTLFLQMNSLGAEDTAVYYCARDGTRYCSRTSCHSGYYYYGMDVWGQGTTVTVSS", "binding result": "binds"}
{"binder": "CRB0017 scFv (scFv, detected in ELISA with an anti-V5 antibody, tag not described; also called clone M6) scFv: DIVITQDELSNPVTSGESVSISCRSSKSLLYKDGKTYLYWFLQRPGQSPQLPIYLMSTRASGVSDRFSGSGSGTDFTLEISRVKAEDVGVYYCQQLVEYPYTFGGGTKLEIKRSGGSTRGSGKPGSGEGSSGTQVQLQQSGAELAKPGASVKMSCKASGYTFTSYWMHWVKQRPGQGLEWIGYINPSTGYTEYNQKFKDKATLTADKSSSTAYMQLGSLTSEDSAVYYCARGGYDDLGYWGQGTTLTVSS", "binding result": "binds"}
{"binder": "CRB0094 scFv (scFv, VP16 fusion in the yeast selection; also called clone 48B) scFv: QSVLTQPPSASGSPGQSVTISCTGTSSDVGGYNYVSWYQQHPGKAPKLLIYDVSNRPSGVSSRFSGSKSGNSASLTISGLQAEDEADYYCSSYTRRSTLEFGGGTKLTVLSGGSTSGSGKPGSGEGSSGTQVQLQQWGAGLLKPSGTLSLTCAVYGGSFSGYYWSWIRQPPGKGLEWIGEINHSGSTNYNPSLKSRVTISVDTSKNQFSLKLSSVTAADTAVYYCARTIWSTRHDFWSGYYSSNWFDPWGQGTLVTVSS", "binding result": "binds"}
{"binder": "CRB0102 scFv (scFv, VP16 fusion in the yeast selection; also called clone 15A) scFv: EVQLVESGSDVKKPGASVRVSCKVSGYRLTEYPIHWVRQAPGKGLEYMGGFDLENGVTKAAPRFRGRFTMTEDTSTDSVYMELKSLTSEDTAVYYCVKGPGYGALVTSFTSWGLGTLVTVSSSGGSTSGSGKPGSGEGSSGTETTLTQSPAFMSATPGDKIYISCKASQDIDDDMNWYQQKPGEAAIFIIQEATTLVPGIPPRFSGSGYGTDFTLTINNMESEDAAYYFCPQQDNVPLTFGGGTKVDIK", "binding result": "binds"}
{"binder": "CRB0123 scFv (scFv, VP16 fusion in the yeast selection; also called clone S50) scFv: QVQLQESGGGVVQPGRSLRLSCAASGFTFSGYGMNWVRQAPGTGLEWVATISFDGTDKYYADSVKGRFTISRDNAENTLYLQMNSLRAEDMAVYYCARDWSYAMDVWGQGTMVTVSSSGGSTSGSGKPGSGEGSSGTDIQMTQSPSSVSASVGDRVTITCRPSQGIGKYSAWYQQKPGKAPELPIYLASTLQSGVPSRFSDSGSGTEFTLTISSLQPEDFATYYCLQRNTYPWTFGQGTKVEIK", "binding result": "binds"}
{"binder": "CRB0019 scFv (scFv, VP16 fusion in the yeast selection; also called clone 14) scFv: DIVMTQSHKFMSTSEGDRVSITCKASQDVGTAVAWYQQKPGQSPKLLIYWASTRHTGVPDRFTGSGSGTDFTLTISNVQSEDLADYICQQYCSHPYTFGAGTKLEIKRSGGSTSGSGKPGSGEGSRGTQVQLQQSGAEPVKPGASVKLSCTASGFNIKDTYMHWVKQRPEQGLEWIGRIDPAHGRTKYDPKFQGKATITADTSSNTAYLQLSSLSSEDTAVYYCAFYSYAIDYWGQGTSVTVSS", "binding result": "binds"}
